Source: patent publication US20240287172A1 (SCIRHOM, published 2024)
Where a chain is given by its changes, count along the chain named.

T1: hiR2-FL-S607R-T7 (human, UniProt Q6PJF5 1-856)
T1 sequence: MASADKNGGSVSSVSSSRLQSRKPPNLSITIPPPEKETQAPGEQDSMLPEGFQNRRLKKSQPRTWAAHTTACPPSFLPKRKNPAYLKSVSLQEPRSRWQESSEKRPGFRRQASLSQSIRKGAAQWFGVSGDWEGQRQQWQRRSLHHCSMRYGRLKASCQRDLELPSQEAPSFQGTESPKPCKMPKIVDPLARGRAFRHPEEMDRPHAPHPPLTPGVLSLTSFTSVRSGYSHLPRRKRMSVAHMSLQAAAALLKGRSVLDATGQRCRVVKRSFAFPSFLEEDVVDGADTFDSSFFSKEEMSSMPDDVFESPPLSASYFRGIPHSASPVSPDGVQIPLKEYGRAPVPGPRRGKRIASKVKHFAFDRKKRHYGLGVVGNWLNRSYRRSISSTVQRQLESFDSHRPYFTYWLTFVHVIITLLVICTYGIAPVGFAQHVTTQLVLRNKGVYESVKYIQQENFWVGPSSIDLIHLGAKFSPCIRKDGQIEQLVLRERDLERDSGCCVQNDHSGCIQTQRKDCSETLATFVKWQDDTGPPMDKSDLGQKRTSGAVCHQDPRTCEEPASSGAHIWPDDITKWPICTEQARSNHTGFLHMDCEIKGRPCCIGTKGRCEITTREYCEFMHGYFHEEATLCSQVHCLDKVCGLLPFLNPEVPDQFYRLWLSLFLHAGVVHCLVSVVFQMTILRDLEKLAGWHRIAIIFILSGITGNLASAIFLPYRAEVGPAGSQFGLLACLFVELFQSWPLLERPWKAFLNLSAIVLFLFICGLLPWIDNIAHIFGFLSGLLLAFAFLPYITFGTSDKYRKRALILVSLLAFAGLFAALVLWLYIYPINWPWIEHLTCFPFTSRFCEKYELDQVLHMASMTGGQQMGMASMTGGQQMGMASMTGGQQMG

B1: antibody 48 (antibody, V domains shown)
VH: QVQLQQSGTELVRPGTSVKVSCKASGYAFTNYLIEWVKQRPGQGLEWIGVINPGSGFTKYNEKFKGKATLTADKSSSTVYMHLSSLTSEDSAVYFCARGLYRAMDYWGQGTSVTVSS
VL: DIQMTQSPASQSASLGESVTITCLASQTIATWLAWYQQKPGKSPQLLIYGATTLADGVPSRFSGGGSGTKFSFKISSLQAEDFVSYYCQQLYSTPYTFGGGTKLEIK
notes: mouse IgG, kappa light chain; also called clone #48; purified antibody 48
B2: antibody 50 (antibody, V domains shown)
VH: B1 VH with T9A, T16A, T30S, V79A, H82Q
VL: B1 VL with A30G, G50A, T52A, T53S, S85N, L91I
notes: mouse IgG, kappa light chain; also called clone #50; purified antibody 50

Target: T1, hiR2-FL-S607R-T7
Test: FACS, MEF-DKO cells, 3 µg/ml
Outline: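 Binding read by flow cytometry after a PE goat anti-mouse IgG F(ab′)2 secondary (1:100, on ice, 1 h, dark). Before that, immortalized MEF-DKO lines carrying single-mutant hiR2-FL-T7 constructs were incubated 1 h on ice with 3 μg/ml antibody or FACS buffer alone.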

| Binder | loss of binding vs wild type |
| --- | --- |
| B1 | ≥ 30% |
| B2 | ≥ 30% |
